# Measured values reported in patent US6905817B1, “Ret-independent signaling pathway for GDNF” (Licestia Ltd., priority 1998, dated 2005).
# “Also recorded” adds a separate entry of the source.
# T1: GFRα1 of the Ret-negative human SHEP neuroblastoma cell line (human) (UniProt P56159)
# T1 sequence (GPI anchor, looked up): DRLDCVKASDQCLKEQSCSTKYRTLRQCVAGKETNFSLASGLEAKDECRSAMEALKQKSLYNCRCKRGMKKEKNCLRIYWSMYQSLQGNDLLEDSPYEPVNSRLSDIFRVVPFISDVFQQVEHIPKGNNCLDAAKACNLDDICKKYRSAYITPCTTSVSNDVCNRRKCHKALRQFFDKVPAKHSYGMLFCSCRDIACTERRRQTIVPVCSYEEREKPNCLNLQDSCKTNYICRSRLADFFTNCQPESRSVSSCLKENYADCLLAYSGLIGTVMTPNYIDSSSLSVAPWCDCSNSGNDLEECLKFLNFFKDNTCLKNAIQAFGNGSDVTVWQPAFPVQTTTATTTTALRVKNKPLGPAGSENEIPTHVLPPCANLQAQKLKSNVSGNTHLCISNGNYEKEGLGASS
# T2: GPI-anchored GDNF family receptor α1 (GFRα1) of mouse E18 DRG neurons (mouse) (UniProt P97785)
# T2 sequence (GPI anchor, looked up): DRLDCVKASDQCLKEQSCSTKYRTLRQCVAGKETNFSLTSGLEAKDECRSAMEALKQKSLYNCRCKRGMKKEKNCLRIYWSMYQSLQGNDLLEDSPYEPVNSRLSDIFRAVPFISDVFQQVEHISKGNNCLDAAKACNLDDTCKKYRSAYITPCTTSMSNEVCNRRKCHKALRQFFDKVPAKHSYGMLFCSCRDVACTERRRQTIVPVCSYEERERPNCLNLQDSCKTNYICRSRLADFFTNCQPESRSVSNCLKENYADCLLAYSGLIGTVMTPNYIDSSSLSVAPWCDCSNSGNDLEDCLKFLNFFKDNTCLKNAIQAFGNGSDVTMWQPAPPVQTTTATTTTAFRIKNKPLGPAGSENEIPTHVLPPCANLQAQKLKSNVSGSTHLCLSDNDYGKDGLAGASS
# Columns and labels:
# Ret^−/− DRG neurons = test: GDNF-evoked [Ca^2+]i changes, confocal microscopy, Ret^−/− DRG neurons; format: cell-based, mouse; conditions: for GDNF-evoked [Ca^2+]i elevation in heparin injected neurons: 6kD heparin injected, versus solvent/saline injected control neurons
# Protocol: (§1) DRG from embryonic day 18 (E18) mice were treated with trypsin (Worthington), non-neuronal cells removed by preplating, and about 95% pure neurons cultured on poly-ornithine-laminin-coated glass coverslips in Ham's F14 medium (Imperial Laboratories) with serum substitute containing NGF, BDNF and NT-3 (all from PeproTech, 2 ng/ml if each) for at least 1 day before measurement. Neurotrophins were extensively washed out before GDNF application. GDNF was from PeproTech and donated by Cephalon, Inc. Ret-deficient mice (Schuchardt et al., 1994) were identified from heterozygote matings by the absence of kidneys and PCR-based genotyping. GFRα2-deficient mice were obtained from homozygote matings (Rossi et al., 1999).
# (§2) [Ca^2+]i was measured using a Bio-Rad MRC-1024 confocal microscope equipped with an argon-krypton laser. The cells were loaded with 10 μM Calcium Green-1AM (Molecular Probes), a membrane permeable Ca^2+ dye, by 30 min incubation in serum free cell-culture media at 37 ° C. and 5 % CO2. After loading, the neurons were kept at room temperature in Dulbecco's PBS solution contained 20 mM HEPES (pH=7.4) for at least 20 min prior to the experiments. All compounds were applied to the bath by a peristaltic pump. 6 kD Heparin (Sigma) and Alexa 568 nm fluorescent dye (Molecular Probes) were loaded into the cells using Molecular Probes' pinocytotic influx loading reagent basically according to the manufacturer instructions. […] Cell injection was performed using Eppendorf microinjection system. The average intensity of fluorescence in the predefined ROI (Region Of Interest) was measured on-line using TimeCourse software from BioRad. The calibration of fluorescence traces was performed in vitro using Fmax and Fmin values obtained with the calcium calibration buffer kit (Molecular Probes). Because the calibration solutions may not reflect the intracellular environment, the experimental data are presented as delta [Ca^2+]i calculated using Kd=190 nM for Calcium Green-1.
# [1] = molecular target: T1, GFRα1 of the Ret-negative human SHEP neuroblastoma cell line (human); test: anti-GFRα1 immunoprecipitate from the Triton X-100 insoluble fraction of SHEP cells, Western blot with pan-Src antibodies; lane 30 sec of 100 ng/ml GDNF
# [2] = molecular target: T1, GFRα1 of the Ret-negative human SHEP neuroblastoma cell line (human); test: anti-GFRα1 immunoprecipitate from the Triton X-100 insoluble fraction of SHEP cells, Western blot with pan-Src antibodies; lane 7 min of 100 ng/ml GDNF
# [3] = molecular target: T1, GFRα1 of the Ret-negative human SHEP neuroblastoma cell line (human); test: anti-GFRα1 immunoprecipitate from the Triton X-100 insoluble fraction of SHEP cells, Western blot with pan-Src antibodies; lane 0 min GDNF (reference lane)
# [4] = molecular target: T1, GFRα1 of the Ret-negative human SHEP neuroblastoma cell line (human); test: anti-GFRα1 immunoprecipitate from the Triton X-100 insoluble fraction of SHEP cells, Western blot with pan-Src antibodies; lane 1 min of 100 ng/ml GDNF
# [5] = system: wild type mouse DRG neurons; test: GDNF-evoked [Ca^2+]i changes, confocal microscopy with Calcium Green-1AM, wild type DRG neurons; format: cell-based; conditions: for change in [Ca^2+]i: 100 ng/ml, heat-inactivated at 98° C. for 15 min
# Protocol: as §1, §2
# GFRα2^−/− DRG neurons = test: GDNF-evoked [Ca^2+]i changes, confocal microscopy, GFRα2^−/− DRG neurons; format: cell-based, mouse; conditions: pre-treatment 10 μM U-73122
# Protocol: as §1, §2
# Transgenic GFRα2 knock-out mice were produced in our laboratory. […]
# [6] = molecular target: T1, GFRα1 of the Ret-negative human SHEP neuroblastoma cell line (human); test: cell-based or functional assay
# [7] = molecular target: T2, GPI-anchored GDNF family receptor α1 (GFRα1) of mouse E18 DRG neurons (mouse); test: cell-based or functional assay
# [8] = molecular target: T1, GFRα1 of the Ret-negative human SHEP neuroblastoma cell line (human)
molecule,measurement,setting,value
heparin,GDNF-evoked [Ca^2+]i elevation in heparin injected neurons,Ret^−/− DRG neurons,did not evoke an increase in [Ca^2+]i
same,GDNF-evoked [Ca^2+]i elevation in heparin injected neurons,Ret^−/− DRG neurons; listed as Heparin,did not significantly respond to GDNF application
same,[Ca^2+]i response of neurons loaded by pinocytosis with heparin,"Ret^−/− DRG neurons; heparin with Alexa dye, 100 nM GDNF or 10 μM ATP",did not respond either to 100 nM GDNF or to 10 μM ATP
"GFRα1-coupled Src-type kinase of SHEP cells, co-migrating with p62Yes (from UniProt P07947 2-543) (enzyme)","fold (pan-Src band in the anti-GFRα1 immunoprecipitate, relative to 0 min)",[1],1.5 fold
same,"fold (pan-Src band in the anti-GFRα1 immunoprecipitate, relative to 0 min)",[2],1.2 fold
same,"fold (pan-Src band in the anti-GFRα1 immunoprecipitate, relative to 0 min)",[3],1 fold
same,"fold (pan-Src band in the anti-GFRα1 immunoprecipitate, relative to 0 min)",[4],1.5 fold
phosphatidylinositol-specific phospholipase C [PI-PLC],GDNF-evoked [Ca^2+]i elevation after pre-treatment,Ret^−/− DRG neurons; pre-treatment PI-PLC 1 U/ml for 1 hr at 37° C.,abolished the effect of GDNF; also recorded: did not affect [Ca^2+]i
same,GDNF-evoked [Ca^2+]i elevation after pre-treatment,"[5]; pre-treatment 1U/ml PI-PLC, GDNF 100 ng/ml",eliminates GDNF-evoked [Ca^2+]i elevation; also recorded: None of the pre-treated neurons responded
C/C=C(/C)C(=O)O[C@H]1C(C)=C2[C@H]([C@@H]1OC(=O)CCCCCCC)[C@@](C)(OC(C)=O)C[C@H](OC(=O)CCC)[C@@]1(O)[C@H]2OC(=O)[C@@]1(C)O [thapsigargin],change in [Ca^2+]i on thapsigargin treatment,"Ret^−/− DRG neurons; 5 μM, end of experiments, PI-PLC pre-treated neurons",[Ca^2+]i was transiently increased
same,change in [Ca^2+]i on application of thapsigargin,"[5]; 5 μM, applied at the end of the experiments",profound elevation in [Ca^2+]i
same,GDNF-evoked [Ca^2+]i elevation after pre-treatment,[5]; pre-treatment 5 μM thapsigargin,abolished the effect of GDNF; also recorded: resulted in the abolishing of the effect of GDNF
COc1ccc2c(c1)CC[C@@H]1[C@@H]2CC[C@]2(C)[C@@H](NCCCCCCN3C(=O)C=CC3=O)CC[C@@H]12 [U-73122],GDNF-evoked release of Ca^2+ from internal stores after pre-treatment,GFRα2^−/− DRG neurons,inhibited release of Ca^2+ from the internal stores
same,GDNF-evoked long-lasting [Ca^2+]i elevation / Ca^2+ release after pre-treatment,Ret^−/− DRG neurons; pre-treatment U-73122 (10 μM),completely abolished; also recorded: inhibited release of Ca^2+ from the internal stores
same,GDNF-evoked [Ca^2+]i elevation after pre-treatment,[5]; pre-treatment with U-73122,resulted in abolishing of the effect of GDNF; also recorded: resulted in the abolishing of the effect of GDNF
"Glial cell line-derived neurotrophic factor (GDNF) (ligand, UniProt P39905 78-211, looked up, species assumed) Glial cell line-derived neurotrophic factor: SPDKQMAVLPRRERNRQAAAANPENSRGKGRRGQRGKNRGCVLTAIHLNVTDLGLGYETKEELIFRYCSGSCDAAETTYDKILKNLSRNRRLVSDKVGQACCRPIAFDDDLSFLDDNLVYHILRKHSAKRCGCI",Src-type kinase activity in co-precipitates with anti-GFRα1 antibodies from Triton X-100 insoluble fractions of SHEP cells,[6],12 fold
same,"[Ca^2+]i elevation in Ret^-/- DRG neurons (confocal microscopy, Calcium Green-1) (% of the neurons)",[7],60 to 70
same,"in vitro kinase activity co-precipitated with anti-GFRα1 antibodies from the Triton X-100 insoluble fraction of SHEP cells, fold relative to untreated cells; lane 0 min (reference lane)",[8],1 fold
same,"in vitro kinase activity co-precipitated with anti-GFRα1 antibodies from the Triton X-100 insoluble fraction of SHEP cells, fold relative to untreated cells; lane 30 sec of 100 ng/ml GDNF",[8],12 fold
same,"in vitro kinase activity co-precipitated with anti-GFRα1 antibodies from the Triton X-100 insoluble fraction of SHEP cells, fold relative to untreated cells; lane 1 min of 100 ng/ml GDNF",[8],10 fold
same,"in vitro kinase activity co-precipitated with anti-GFRα1 antibodies from the Triton X-100 insoluble fraction of SHEP cells, fold relative to untreated cells; lane 7 min of 100 ng/ml GDNF",[8],7 fold
"Heat-inactivated GDNF: GDNF heat-inactivated at 98° C. for 15 min, used as specificity control (protein, UniProt P39905 78-211, looked up, heat-inactivated) Glial cell line-derived …: SPDKQMAVLPRRERNRQAAAANPENSRGKGRRGQRGKNRGCVLTAIHLNVTDLGLGYETKEELIFRYCSGSCDAAETTYDKILKNLSRNRRLVSDKVGQACCRPIAFDDDLSFLDDNLVYHILRKHSAKRCGCI",change in [Ca^2+]i,"Ret^−/− DRG neurons; prolonged application, heat-inactivated, 100 ng/ml",did not respond with [Ca^2+]i elevations
same,change in [Ca^2+]i,[5],did not evoke any changes of basal [Ca^2+]i
same,change in [Ca^2+]i,[5]; heat-inactivated,did not evoke changes in [Ca^2+]i
